± gives the uncertainty stated by the source.

A short description of this data set: amyloid nucleation score (Sup35N fusion, yeast selection) (log enrichment); library NNK1; higher = more nucleation; inactive = no reads after selection. In a few lines:
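Plasmid inserts were Illumina-sequenced at input and output from psi-negative yeast expressing Sup35N fused to peptides of 20 random codons. The yeast were induced with 100 μM copper sulfate for 24 hours and grown 7 days at 30°C on medium lacking adenine and uracil, and sequences with under 100 input reads were excluded. Nucleation score is the DiMSum log enrichment of output over input reads, centred on the mode score of non-aggregating sequences.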
Substance SFSSSSLYSLVCRYHSIRWA came in with an amyloid nucleation score of 0.589 ± 0.28. With SFVSRGCSYCC, the amyloid nucleation score was -0.489 ± 0.59. The result for SFYILTHTNFGTFPLFDDRH reads -0.897 ± 0.69; that for SFYVWDDSYCFVFGCTSVKC, -0.291 ± 0.47. In turn, SGAPLDAGFNIA yielded an amyloid nucleation score of 0.227 ± 0.49.

As to SGAYLKASYTSPSVRVFLVL, the amyloid nucleation score was 2.75 ± 0.25. The result for SGDRAYFSKFSVCIPRDRVQ reads -0.046 ± 0.67; that for SGDWTYFIIMRWDLPFIICR, 0.265 ± 0.22.

Turning to SGFSGVRNHPRETQLCHGSA, the amyloid nucleation score is -0.094 ± 0.33. The result for SGGELVVLIYMNMGASGWAP reads -0.756 ± 0.56; that for SGGSLVFVCYGRNF, -1.35 ± 1.1. The result for SGGYLADYPLRVNLLFFNFV reads 0.431 ± 0.43; that for SGIVLTG, -1.06 ± 2.1. Consider SGLGTNKRSTPWYHSRFEGQ, for which the amyloid nucleation score turned out to be 0.036 ± 0.47. In the case of SGMRRFRWLEVFSTDQRLEA it was “inactive”; in that of SGQMSLWSYL, 0.781 ± 0.59; in that of SGSSTVWCAYRMTGQPPGRT, 1.37 ± 0.51. The result for SGTIYWLTDQSDFILLVMRD reads -1.26 ± 0.47; that for SGTRELALGRFHTCCNQRGK, 0.442 ± 0.27.

As to SHLFQM, the amyloid nucleation score was -0.034 ± 0.58. In the case of SHLGVVCNRLVYERETNVST it was -0.191 ± 0.29; in that of SHLMPGCEKFLHCVSFPDA, -0.45 ± 0.56; in that of SHLNHEGFRLIQCLIWSLHW, 0.33 ± 0.54.

In turn, SHMDHGRQRWCSN gave an amyloid nucleation score of 0.83 ± 0.88. The result for SHMMHSMAEVSFARYWDKQS reads -2.46 ± 1.9. The result for SHRSFFCSSLWMNYYCLISS reads “inactive”; that for SHTTILTSWRSYKKMKASNA, 0.496 ± 0.43. The result for SHYTHVFLM reads -0.468 ± 0.93.

Substance SIANVSFW came in with an amyloid nucleation score of 1.59 ± 0.18. In the case of SIAYPRNIELRWDEIGGDML it was 0.178 ± 0.54; in that of SIGFLYCPLMSCASNFKWSK, 4.55 ± 0.068. In the case of SILEQILC it was -0.324 ± 0.22; in that of SILIRLIISTINCCVNNVAF, 5.43 ± 0.083. In the case of SINHNGPDQLKGVPFSCSCV it was “inactive”; in that of SINSRKSFMFIF, 2.39 ± 0.16; in that of SINVL, -1.03 ± 0.55. SINVPPHSGHELH gave an amyloid nucleation score of 1.12 ± 0.76.

For the substance SIPYSRRVF, the amyloid nucleation score turned out to be 0.103 ± 0.41. SIRSFMIVL registered an amyloid nucleation score of 3.49 ± 0.13. The result for SISWVWAAPIRAI reads -1.59 ± 2.4.

Consider SIWKRLYFQVNGL, for which the amyloid nucleation score came out at 0.925 ± 0.92.

As to SKCIWDFGYVSPWAISS, the amyloid nucleation score result was “inactive”.

On to SKDGCSCFDIDVAMEGLLMR, for which the amyloid nucleation score was -0.053 ± 1.1. The result for SKFFQLFSVTILYAMDSGPC reads -0.462 ± 0.7; that for SKKIVGIFYKVCSRRLFMVC, 0.456 ± 0.6. SKLLNVDLTPCRSRTTLFVC displayed an amyloid nucleation score of 1.29 ± 0.47. In the case of SKNAWRVKNKSEFAV it was 0.488 ± 0.69; in that of SKQFQASFHRVYSSVFSGWH, 0.669 ± 0.38. In the case of SKSDQSWYFL it was -0.227 ± 0.68.

Regarding SKSYFSIV, the amyloid nucleation score is -0.361 ± 0.39. In the case of SKWYSDQT it was “inactive”. Regarding SKYGAYGRMVSSNLDT, the amyloid nucleation score is -0.204 ± 0.84. In the case of SKYVYSF it was 1.2 ± 0.13; in that of SLCRGATGGDGWWGVCSSA, 0.614 ± 0.91; in that of SLDDPFRENCLLESFSLMLS, -0.552 ± 1.9. In the case of SLDYVSQFIQLLRFFKFYMV it was “inactive”. In the case of SLECLALTFVGYVTGRLMDL it was -1.02 ± 1.7.

SLEDLWTRVERIRASEPVLG: the amyloid nucleation score was -0.293 ± 0.92.

The record behind these values is the supplement of paper PMC12042874.
